Patent US20230203470A1 (published 2023)

Target: the molecule itself
Assay: size-exclusion chromatography of anti-FLAG affinity purified protein (self-association into a homodimer)
Experimental: Batch purification was performed using an anti-FLAG M2 affinity resin (Sigma-Aldrich, St. Louis, Mo., Cat. No. A2220), following the manufacturer's instructions. ADA2 were eluted from the resin using FLAG™ peptide. Purity of the eluted protein was assessed using SDS-PAGE and size-exclusion chromatography (SEC).

B1: WT recombinant human ADA2-FLAG polypeptide (enzyme)
chain: IDETRAHLLLKEKMMRLGGRLVLNTKEELANERLMTLKIAEMKEAMRTLIFPPSMHFFQAKHLIERSQVFNILRMMPKGAALHLHDIGIVTMDWLVRNVTYRPHCHICFTPRGIMQFRFAHPTPRPSEKCSKWILLEDYRKRVQNVTEFDDSLLRNFTLVTQHPEVIYTNQNVVWSKFETIFFTISGLIHYAPVFRDYVFRSMQEFYEDNVLYMEIRARLLPVYELSGEHHDEEWSVKTYQEVAQKFVETHPEFIGIKIIYSDHRSKDVAVIAESIRMAMGLRIKFPTVVAGFDLVGHEDTGHSLHDYKEALMIPAKDGVKLPYFFHAGETDWQGTSIDRNILDALMLNTTRIGHGFALSKHPAVRTYSWKKDIPIEVCPISNQVLKLVSDLRNHPVATLMATGHPMVISSDDPAMFGAKGLSYDFYEVFMGIGGMKADLRTLKQLAMNSIKYSTLLESEKNTFMEIWKKRWDKFIADVATKDYKDDDDK
notes: The only entry describes two identical subunits associating into the homodimer seen by SEC; Expressed in CHO-S cells and purified on anti-FLAG M2 resin; also called rHuADA2; rHuADA2-FLAG
B1: binds.
